# B1: RAD51: recombinant human strand exchange protein RAD51 (Creative Biomart RAD51-134H), transcript variant 4 (protein, UniProt Q06609 2-339, looked up)
# DNA repair protein RAD51 …: AMQMQLEANADTSVEEESFGPQPISRLEQCGINANDVKKLEEAGFHTVEAVAYAPKKELINIKGISEAKADKILAEAAKLVPMGFTTATEFHQRRSEIIQITTGSKELDKLLQGGIETGSITEMFGEFRTGKTQICHTLAVTCQLPIDRGGGEGKAMYIDTEGTFRPERLLAVAERYGLSGSDVLDNVAYARAFNTDHQTQLLYQASAMMVESRYALLIVDSATALYRTDYSGRGELSARQMHLARFLRMLLRLADEFGVAVVITNQVVAQVDGAAMFAADPKKPIGGNIIAHASTTRLYLRKGRGETRICKIYDSPCLPEAEAMFAINADGVGDAKD
# Experiments:
# Chd2^R1684H locus = assay: Genotyping of individual blastomeres of 2-cell embryos; type: cell-based, mouse; conditions: blastomeres collected at 24hpf, IVF strategy, co-injected with RAD51
# Protocol: Zygotes were prepared by IVF as described above and cultured until 24hpf in FHM at 37° C. and 5% CO2. Two-cell embryos were transferred 10 at a time into room temperature acidified Tyrode's solution. Embryos were monitored by microscopy and were transferred back to FHM once the zona pellucida was dissolved. Individual blastomeres were collected via mechanical dissociation with a glass micropipette and transferred to 4 μL nuclease-free water. Blastomeres were then lysed and processed for genotyping as previously described.
# After fertilization, the maternal and paternal pronuclei remain until the completion of S-phase, at which time the pronuclei fuse in preparation for mitosis. […] To begin to address the timing of zygotic ICHR, genotyping of individual blastomeres was performed in early 2-cell embryos generated through the IVF strategy and co-injected with RAD51. […] Because the blastomeres were collected early in the 2-cell stage, it is unlikely that all observed mosaicism resulted from editing events after the completion of mitosis. […]
# RAD51 puncta = assay: Immunocytochemistry for RAD51 puncta in zygotes; type: cell-based, mouse
# Protocol: Zygotes were fixed overnight at 4° C. in 4% PFA+0.1% Tween-20 in PBS and then briefly transferred to acidified Tyrode's (Sigma T1788) to remove the zona. After washing in PBS+0.1% Tween-20 (PBST), zygotes were permeabilized in PBS+1% Triton X-100 for 1 hour at 4° C. and then blocked for 1 hour at room temperature in blocking solution (PBS+3% BSA+5% normal goat serum). Primary antibody (rabbit anti-RAD51, Abcam ab63801, 1:500) was diluted in blocking solution and applied to coverslips overnight at 4° C. Cells were washed 3 times in PBST before application of secondary antibody (goat anti-rabbit IgG conjugate, Alexa Fluor 488, ThermoFisher A-11008) diluted in blocking solution for 1 hour at room temperature. Nuclei were counterstained with DAPI and coverslips were mounted to slides with Fluoromount Aqueous Mounting Medium (Sigma F4680). Cells were imaged on an Olympus Fluoview FV1000 confocal microscope with a 60× oil immersion objective and variable digital zoom. Raw image files were exported to FIJI^41 for Z-projection (sum slices), channel splitting, and scale bar generation.
# Nonetheless, to more directly test the timing of zygotic ICHR, immunocytochemistry (ICC) was performed for RAD51 in uninjected, RAD51-injected, Cas9-injected (with Chd2-targeting crRNA), and Cas9- and RAD51-injected zygotes at three time points: G1 [9 hours post-fertilization (hpf), 1-hour post-injection (hpi)], G2 (14hpf, 6hpf, post S-phase), and M-phase (16hpf, 8hpi).
molecule,measurement,setting,value
B1,mosaicism in embryos with an ICHR event in at least one cell,Chd2^R1684H locus,4/6
same,number of RAD51 puncta per zygote,RAD51 puncta; G2 zygotes,single
same,zygotes Negative for RAD51 puncta,"RAD51 puncta; number of zygotes, G2 (14hpf)",25
same,zygotes Positive for RAD51 puncta,"RAD51 puncta; number of zygotes, G2 (14hpf)",6
